Key:
[1] = target: E1/E2 glycoprotein complex of Jc1/G451R (Jc1 with a single G451R mutation within E2) on HCV particles (hepatitis C virus genotype 2a (J6CF)) (UniProt P26660)
[2] = target: E1/E2 glycoprotein complex of Jc1/mCD81 (Jc1 carrying L216F, V388G and M405T) on HCV particles (hepatitis C virus genotype 2a (J6CF)) (UniProt P26660)

recombinant fusion protein between GST and the human CD81 large extracellular loop (LEL) (domain or fragment)
reduction of luciferase reporter virus infection of Lunet N hCD81 cells after preincubation with 10 µg/ml hCD81 LEL [1]: > 10 fold | reduction of luciferase reporter virus infection of Lunet N hCD81 cells after preincubation with 10 µg/ml hCD81 LEL [2]: > 10 fold
